Molecular target: recombinant full-length His-tagged human PABPC1 (human, UniProt P11940 1-636)
Test: pull-down

Chain of recombinant full-length His-tagged human PABPC1 (P11940 whole entry): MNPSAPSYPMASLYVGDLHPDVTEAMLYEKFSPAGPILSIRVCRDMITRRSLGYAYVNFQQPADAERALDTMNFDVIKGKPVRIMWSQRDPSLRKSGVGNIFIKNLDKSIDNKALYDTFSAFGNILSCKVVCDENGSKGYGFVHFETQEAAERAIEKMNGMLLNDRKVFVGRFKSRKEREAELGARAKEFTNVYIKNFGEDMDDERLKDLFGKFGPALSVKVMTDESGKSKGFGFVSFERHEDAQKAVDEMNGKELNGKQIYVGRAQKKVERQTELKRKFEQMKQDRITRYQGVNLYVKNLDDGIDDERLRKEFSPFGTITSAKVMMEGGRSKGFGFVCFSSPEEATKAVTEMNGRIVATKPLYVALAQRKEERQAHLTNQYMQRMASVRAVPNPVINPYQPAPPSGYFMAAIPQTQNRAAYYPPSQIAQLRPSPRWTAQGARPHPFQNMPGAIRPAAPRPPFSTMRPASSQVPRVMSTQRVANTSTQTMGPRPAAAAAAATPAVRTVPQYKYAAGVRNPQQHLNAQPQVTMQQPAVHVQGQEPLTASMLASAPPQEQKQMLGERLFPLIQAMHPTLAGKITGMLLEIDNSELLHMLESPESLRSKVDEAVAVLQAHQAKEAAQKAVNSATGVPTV

B1: GST-fused TNRC6C fragment 1242-1601 (domain or fragment, human, UniProt Q9HCJ0-1 1242-1601, looked up)
chain: PQTPGLPDLQTKEQQSSPNTFAPYPLAGLNPNMNVNSMDMTGGLSVKDPSQSQSRLPQWTHPNSMDNLPSAASPLEQNPSKHGAIPGGLSIGPPGKSSIDDSYGRYDLIQNSESPASPPVAVPHSWSRAKSDSDKISNGSSINWPPEFHPGVPWKGLQNIDPENDPDVTPGSVPTGPTINTTIQDVNRYLLKSGGKLSDIKSTWSSGPTSHTQASLSHELWKVPRNSTAPTRPPPGLTNPKPSSTWGASPLGWTSSYSSGSAWSTDTSGRTSSWLVLRNLTPQIDGSTLRTLCLQHGPLITFHLNLTQGNAVVRYSSKEEAAKAQKSLHMCVLGNTTILAEFAGEEEVNRFLAQGQALPP
B1: binds.

B2: GST-fused TNRC6C fragment 1364-1601 (domain or fragment, human, UniProt Q9HCJ0-1 1364-1601, looked up)
chain: PHSWSRAKSDSDKISNGSSINWPPEFHPGVPWKGLQNIDPENDPDVTPGSVPTGPTINTTIQDVNRYLLKSGGKLSDIKSTWSSGPTSHTQASLSHELWKVPRNSTAPTRPPPGLTNPKPSSTWGASPLGWTSSYSSGSAWSTDTSGRTSSWLVLRNLTPQIDGSTLRTLCLQHGPLITFHLNLTQGNAVVRYSSKEEAAKAQKSLHMCVLGNTTILAEFAGEEEVNRFLAQGQALPP
B2: binds.
